Measured values reported in US12018084B2, “Anti-CXCR2 antibodies and uses thereof” (Cephalon LLC, priority 2018, dated 2024).
Where a chain is given by its changes, count along the chain named. Names may count otherwise.

Legend:
[1] = biological target: T1, native human CXCR2 expressed by human neutrophils (Homo sapiens, UniProt P25025); test: Flow cytometry binding to human blood cells (neutrophils, monocytes, PBMC preparations); conditions: FIG. 2, MFI
T1 construct: native human CXCR2 expressed by human neutrophils; endogenous in cells; host or cells: human peripheral blood cells (buffy coat, PBMC-enriched fractions, anticoagulated blood): neutrophils, monocytes
T1 sequence (P25025 1-360): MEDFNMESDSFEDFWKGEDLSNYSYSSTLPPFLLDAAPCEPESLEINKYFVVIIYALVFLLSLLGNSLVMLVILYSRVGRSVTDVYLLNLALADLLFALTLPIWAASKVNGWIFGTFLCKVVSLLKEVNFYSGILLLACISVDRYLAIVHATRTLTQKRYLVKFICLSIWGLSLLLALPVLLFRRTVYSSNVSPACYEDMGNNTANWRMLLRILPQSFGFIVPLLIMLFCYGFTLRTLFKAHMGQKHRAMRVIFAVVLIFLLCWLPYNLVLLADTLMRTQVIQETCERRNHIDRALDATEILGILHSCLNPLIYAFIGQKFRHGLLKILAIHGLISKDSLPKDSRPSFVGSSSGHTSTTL
Protocol: (§1) Whole human buffy coat, PBMC enriched fractions prepared from human peripheral blood buffy coat or cynomolgus monkey whole blood was used for analysis of antibody binding activity by flow cytometry. Briefly, blood was untreated or diluted 1:1 in sterile filtered room temperature phosphate-buffered saline (PBS). 30 mL samples were layered over 15 mL Lymphoprep™ (Stem Cell Technologies, cat #07851). Peripheral blood mononuclear cells (PBMC) were enriched by room temperature centrifugation at 700 g for 30 minutes with no braking. The PBMC layer was isolated and cells washed in PBS containing 2 mM EDTA with low speed centrifugation at 200 g, to remove platelet contamination. Whole blood or PBMC enriched cell fractions were resuspended in red blood cell lysing solution (BioLegend, 420301). Viable cell counts were determined and cells resuspended at 1×10^7 cells per mL in FACS buffer (1×PBS+0.5% (w/v) BSA+2 mM EDTA pH 7.2).
(§2) Flow cytometry binding assays using whole blood or PBMC enriched preparations: Binding assays to detect CXCR2 on blood neutrophil populations using test antibodies were performed essentially as described for assays using transiently transfected Expi293F™ cells. Binding of antibodies to human CXCR2 on the surface of the neutrophils was measured using anti-CXCR2 antibody directly conjugated to the fluorophore allophycocyanin (APC). Matched isotype control antibodies were included for comparison. Cells were incubated with lineage specific antibodies and 2 μg/ml of APC conjugated anti-CXCR2 antibody or isotype control prepared in ice cold 3% BSA/PBS for a minimum of 30 minutes at 4° C. The commercial anti-CXCR2 antibody (clone 48331 (R&D Systems FAB331A)) was used as a positive control. Neutrophil populations were identified by characteristic granularity and size, and positive binding of commercially available antibodies against CD10 (Biolegend, clone H110a, catalogue number 312204). Cells were washed and fixed (BioLegend Fixation buffer, 420801) prior to analysis. The level of fluorescence on the cell surface was measured by flow cytometry. Using this method, test anti-CXCR2 antibodies were detected binding neutrophils from both human and cynomolgus monkey.
To further characterize the anti-CXCR2 antibody BKO-4A8-101c, the ability to bind CXCR2 on neutrophils was tested on anticoagulated human blood. Binding was measured using BKO-4A8-101c directly conjugated to fluorophore APC. Matched isotype control antibodies conjugated to APC were included for comparison. Cells were incubated with lineage-specific antibodies and 2 μg/mL of APC conjugated anti-CXCR2 antibody or isotype control. The level of fluorescence on the cell surface was measured by flow cytometry. […]

[2] = system: native cynomolgus CXCR2 expressed by cynomolgus neutrophils; test: Flow cytometry binding to cynomolgus blood neutrophils; parameters: species or system cynomolgus monkey; conditions: FIG. 2, MFI
Chain of native cynomolgus CXCR2 expressed by cynomolgus neutrophils (as listed by the source): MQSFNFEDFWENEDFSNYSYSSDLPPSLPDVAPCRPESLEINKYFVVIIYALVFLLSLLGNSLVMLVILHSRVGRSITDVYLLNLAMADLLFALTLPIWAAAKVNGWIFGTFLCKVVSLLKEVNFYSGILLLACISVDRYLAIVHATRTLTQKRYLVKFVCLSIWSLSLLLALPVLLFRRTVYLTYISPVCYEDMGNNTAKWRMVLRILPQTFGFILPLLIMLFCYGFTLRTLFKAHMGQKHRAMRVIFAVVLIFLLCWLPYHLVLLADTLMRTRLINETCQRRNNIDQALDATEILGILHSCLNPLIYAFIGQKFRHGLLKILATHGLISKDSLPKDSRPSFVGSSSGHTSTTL
Protocol: as §1
as §2, with “Neutrophil populations were identified by characteristic granularity and size, and positive binding of commercially available antibodies against CD10 (Biolegend, clone H110a, catalogue number 312204). Cells were washed and fixed (BioLegend Fixation buffer, 420801) prior to analysis.” left out

hCXCR2 knock-in mice = test: House dust mite (HDM) severe asthma model in hCXCR2 knock-in mice; assay type: in vivo, mouse; conditions: 10 mg/kg intraperitoneal days 5 and 12, versus vehicle
Source text: hCXCR2 knock-in mice were generated by use of homologous recombination in embryonic stem (ES) cells to insert the human CXCR2 into exon 1 of the mouse CXCR2 gene. The single coding exon of human CXCR2 was inserted into a vector with 5′ and 3′ arms homologous to the genomic location of the mouse coding exon of CXCR2, giving rise to a gene structure that coded for human CXCR2 but retained the mouse non-coding and regulatory elements. This vector was electroporated into C57B1/6 mouse ES cells which were incorporated into C57B1/6 mouse blastocysts and transplanted into pseudopregnant female mice. Pups were backcrossed to the parental C57B1/6 strain and offspring screened by southern blot for germline transmission of the human CXCR2 gene. Mice heterozygous for human CXCR2 were intercrossed to give a homozygous human CXCR2 line and phenotype was confirmed by analysis of binding of anti-mouse and anti-human CXCR2 antibodies by flow cytometry.
The anti-CXCR2 antibody BKO-4A8-mIgG1 (SEQ ID NOs: 113 and 114) was generated by formatting the variable heavy and light chains of BKO-4A8 onto an effector function-reduced mouse IgG1 constant region. Female hCXCR2 knock-in mice were subjected to sensitization with 50 μg HDM in complete Freund's adjuvant (CFA) administered by subcutaneous injection on day 0 and intranasal challenge with […] without CFA on day 14. Animals were treated with vehicle or BKO-4A8-mIgG1 (10 mg/kg) via intraperitoneal injection on days 5 and 12. Inflammatory responses were characterized at endpoint on day 16 by total and differential cell counts in bronchoalveolar lavage (BAL) fluid of the right lung. The left lung was fixed in 10% formalin for histopathology and mucus production assessment.
Statistical evaluation was performed using a Mann-Whitney nonparametric unpaired t test with outliers identified using Grubbs' test (Alpha=0.01) to discern statistically significant differences between the vehicle and treatment groups. All statistical analyses were performed using GraphPad Prism™ 7.01.

Human CXCR2 = biological target: T2, Human CXCR2 (Homo sapiens, UniProt P25025); test: Flow cytometry binding assay, Expi293F cells transiently transfected with human CXCR2; parameters: host or cells: Expi293F cells, vector pTT5; conditions: point variant chain co-expressed with parental other chain
T2 sequence (P25025 1-360): T1 sequence (P25025 1-360)
Protocol: For each 10 mL transfection, lipid-DNA complexes were prepared by diluting 10 μg of plasmid DNA in Opti-MEM™ I Reduced Serum Medium (Cat. no. 31985-062) to a total volume of 1.0 mL. 54 μL of ExpiFectamine™ 293 Reagent was diluted in Opti-MEM™ I medium to a total volume of 1.0 mL. Transfections were carried out according to manufacturer's instructions. The cells were incubated in a 37° C. incubator with a humidified atmosphere of 8% CO2 in air on an orbital shaker rotating at 200 rpm. Approximately 18-24 hours post-transfection, the cell viability was evaluated and transfected cells harvested for use.
Harvested cells were resuspended in FACS buffer (1×PBS+0.5% (w/v) bovine serum albumin (BSA)+2 mM EDTA pH 7.2). Approximately 2×10^5 cells were added per well in a 96-well round-bottomed plate. Cells were pelleted by centrifugation at 400 g for 5 mins at 4° C. and supernatants discarded. 25 μL of each test antibody or control antibody was added to the cells and incubated for 30 minutes at 4° C. Cells were washed twice in 100 μL FACS buffer followed by centrifugation at 400 g for 5 mins at 4° C.
For detection, 50 μL of secondary antibody (Table 2) was added to relevant samples. Commercially available antibodies that bound to transfected CXCR family members were used as positive controls to ensure that the cells were expressing the receptors. Cells were washed twice in 200 μL of FACS buffer followed by centrifugation at 400 g for 5 mins at 4° C. Before sample acquisition, cells were resuspended in 100 μL of FACS buffer. Samples were acquired using the high throughput sampler on a FACSCanto™ II cytometer (Beckton-Dickinson).
Binding of BKO-4A8 and variants thereof was detected by incubation of fluorochrome-conjugate anti-human IgG light chain lambda antibody. The binding activity of antibodies tested, quantified as mean fluorescent intensity, was independent of the antibody Fc region as illustrated in FIG. 9.

B1: BKO-8G3_b: recombinant, VH SEQ ID NO: 41, VL SEQ ID NO: 42 (antibody, V domains shown)
VH: EVQLLESGGGLVQPGGSLRLSCAASGFTFSSYAMSWVRQAPGKGLEWVSAITGSGGSTYYADSVKGRFTISRDKSKNTLYLQMNSLRAEDTAVYYCAIRLGYWGQGSLVTVSS
VL: QSALTQPPSASGSPGQSVTISCTGTSSDVGGYNYVSWYQQHPGKVPKLVIYEVSKRPSGVPDRFSGSKSGNTASLTVSGLQAEDEADYYCSSYAGSNNFGVFGGGTKLTVL
modifications: BKO_8G3_H4_D04_VH; BKO_8G3_L1_G01_VL
binding to native human CXCR2 on human PBMCs / neutrophils [1]: high binding activity
binding to native cynomolgus CXCR2 on cynomolgus PBMCs / neutrophils [2]: high binding activity

B2: BKO-9C3_a: recombinant, VH SEQ ID NO: 49, VL SEQ ID NO: 50 (antibody, V domains shown)
VH: B1 VH with L4V, S30R, T52S, R99Q, S107T
VL: B1 VL with T19I, V49M, S91T
modifications: BKO_9C3_H8_G08_VH; BKO_9C3_L1_F01_VL
binding to native human CXCR2 on human PBMCs / neutrophils [1]: substantial levels of binding
binding to native cynomolgus CXCR2 on cynomolgus PBMCs / neutrophils [2]: above average levels of binding

B3: BKO-4A8-mIgG1: BKO-4A8 variable chains on an effector function-reduced mouse IgG1 constant region (SEQ ID NOs: 113 and 114) (antibody)
heavy: EVQLLESGGGLVQPGGSLRLSCAASGFTFSSSTMSWVRQAPGKGLEWVSAISGRGRNTYYADSVKGRFTISRDNSRNTLYLQMNSLRAEDTAVYYCAIQMGYWGQGILVTVSSAKTTPPSVYPLAPGSAAQTNSMVTLGCLVKGYFPEPVTVTWNSGSLSSGVHTFPAVLQSDLYTLSSSVTVPSSPRPSETVTCNVAHPASSTKVDKKIVPRDCGCKPCICTVPEVSSVFIFPPKPKDVLTITLTPKVTCVVVAISKDDPEVQFSWFVDDVEVHTAQTQPREEQFNSTFRSVSELPIMHQDWLNGKEFKCRVNSAAFPAPIEKTISKTKGRPKAPQVYTIPPPKEQMAKDKVSLTCMITDFFPEDITVEWQWNGQPAENYKNTQPIMNTNGSYFVYSKLNVQKSNWEAGNTFTCSVLHEGLHNHHTEKSLSHSPG
light: QSALTQPPSASGSPGQSVTISCIGTSSDVGGYNYVSWYQQHPDKAPKLMIYEVNKRPSGVPDRFSGSKSGNTASLTVSGLQAEDEADYYCSSYAGNNNFGVFGGGTKLTVLGQPKSSPSVTLFPPSSEELETNKATLVCTITDFYPGVVTVDWKVDGTPVTQGMETTQPSKQSNNKYMASSYLTLTARAWERHSSYSCQVTHEGHTVEKSLSRADCS
modifications: effector function-reduced mouse IgG1 constant region; BKO-4A8-mIgG1 VH; BKO-4A8-mIgG1 VL
goblet cell hyperplasia (hCXCR2 knock-in mice; p=0.0052): reduced goblet cell hyperplasia
reduction in BAL eosinophil counts (hCXCR2 knock-in mice; p=0.017): > 60%
reduction in BAL neutrophil counts (hCXCR2 knock-in mice; p=0.028): > 60%

B4: Y91A: BKO-4A8 point variant, VL SEQ ID NO: 83 (antibody, V domains shown)
VL: B1 VL with T23I, G43D, V45A, V49M, S54N, Y93A, S96N
modifications: VH not cited; 4A8 VL Y91A
Fold change in binding relative to BKO-4A8 (Human CXCR2): 1.7

B5: V97A: BKO-4A8 point variant, VL SEQ ID NO: 96 (antibody, V domains shown)
VL: B1 VL with T23I, G43D, V45A, V49M, S54N, S96N, V101A
modifications: VH not cited; 4A8 VL V97A
Fold change in binding relative to BKO-4A8 (Human CXCR2): 1.7

B6: V97K: BKO-4A8 point variant, VL SEQ ID NO: 97 (antibody, V domains shown)
VL: B1 VL with T23I, G43D, V45A, V49M, S54N, S96N, V101K
modifications: VH not cited; 4A8 VL V97K
Fold change in binding relative to BKO-4A8 (Human CXCR2): 1.0
